Measurements taken from the supplement of paper PMC9112550, “Optimization of the antimicrobial peptide Bac7 by deep mutational scanning” (BMC Biology, 2022).

Tested on: Escherichia coli TOP10
Assay: shrunken log2 fold change of peptide-encoding DNA abundance (4.5 h post-induction vs induction); higher = less antimicrobial activity (less host growth inhibition)
Conditions: time post-induction: 4.5 h; library: site-saturation at positions 5, 18, 19, 20
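Further: peptides expressed intracellularly from a pBAD plasmid library in pooled LB shake-flask culture, induced with 0.3% L-arabinose, DNA abundance read by NGS, three biological replicates, DESeq2 with apeglm shrinkage.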

| Sequence | shrunken log2 fold change |
| --- | --- |
| RRIRTRPPRLPRPRPRPIKYPRP | 4.24 |
| RRIRKRPPRLPRPRPRPYGKPRP | -0.154 |
| RRIRHRPPRLPRPRPRPNEFPRP | -0.00664 |
| RRIRYRPPRLPRPRPRPWVKPRP | 0.0136 |
| RRIRSRPPRLPRPRPRPWTSPRP | 0.0101 |
| RRIRNRPPRLPRPRPRPWPLPRP | -0.0801 |
| RRIRYRPPRLPRPRPRPLQMPRP | -0.209 |
| RRIRIRPPRLPRPRPRPYQQPRP | -0.0163 |
| RRIRHRPPRLPRPRPRPATGPRP | -0.276 |
| RRIRKRPPRLPRPRPRPMHYPRP | -0.0252 |
| RRIRTRPPRLPRPRPRPFKVPRP | 0.0475 |
| RRIRFRPPRLPRPRPRPAVHPRP | -0.0819 |
| RRIRPRPPRLPRPRPRPPFGPRP | 0.432 |
| RRIRKRPPRLPRPRPRPDEHPRP | 0.0292 |
| RRIRLRPPRLPRPRPRPEEGPRP | -0.115 |
| RRIRHRPPRLPRPRPRPDPWPRP | 0.0282 |
| RRIRQRPPRLPRPRPRPEHFPRP | 0.0746 |
| RRIRERPPRLPRPRPRPMTSPRP | -0.212 |
| RRIRVRPPRLPRPRPRPLTCPRP | -0.187 |
| RRIRARPPRLPRPRPRPYHSPRP | -0.237 |
| RRIRVRPPRLPRPRPRPRVGPRP | 0.655 |
| RRIRARPPRLPRPRPRPKTLPRP | 0.343 |
| RRIRHRPPRLPRPRPRPQATPRP | 0.00115 |
| RRIRLRPPRLPRPRPRPILMPRP | 0.0581 |
| RRIRDRPPRLPRPRPRPHWLPRP | 0.149 |

| Sequence | shrunken log2 fold change |
| --- | --- |
| RRIRTRPPRLPRPRPRPIYAPRP | 0.0866 |
| RRIRVRPPRLPRPRPRPQPAPRP | 0.0494 |
| RRIRGRPPRLPRPRPRPVCYPRP | 0.833 |
| RRIRERPPRLPRPRPRPRYDPRP | -0.246 |
| RRIRKRPPRLPRPRPRPFHYPRP | -0.0954 |
| RRIRSRPPRLPRPRPRPSEEPRP | -0.243 |
| RRIRPRPPRLPRPRPRPCQMPRP | 0.0359 |
| RRIRARPPRLPRPRPRPHMCPRP | -0.174 |
| RRIRERPPRLPRPRPRPADMPRP | -0.0494 |
| RRIRKRPPRLPRPRPRPYHYPRP | 0.00414 |
| RRIRCRPPRLPRPRPRPLETPRP | -0.012 |
| RRIRQRPPRLPRPRPRPGAHPRP | 0.179 |
| RRIRCRPPRLPRPRPRPNHTPRP | -0.536 |
| RRIRGRPPRLPRPRPRPSLVPRP | 0.473 |
| RRIRCRPPRLPRPRPRPRYSPRP | -0.712 |
| RRIRGRPPRLPRPRPRPFNSPRP | 0.0167 |
| RRIRDRPPRLPRPRPRPIPNPRP | 0.0139 |
| RRIRERPPRLPRPRPRPIITPRP | -0.867 |
| RRIRFRPPRLPRPRPRPAWAPRP | 0.953 |
| RRIRIRPPRLPRPRPRPNNHPRP | -1.03 |
| RRIRTRPPRLPRPRPRPARQPRP | 0.263 |
| RRIRPRPPRLPRPRPRPWYDPRP | -0.00228 |
| RRIRQRPPRLPRPRPRPLYNPRP | -0.796 |
| RRIRFRPPRLPRPRPRPMPWPRP | 0.157 |
| RRIRIRPPRLPRPRPRPCMGPRP | -1.07 |

| Sequence | shrunken log2 fold change |
| --- | --- |
| RRIRKRPPRLPRPRPRPENWPRP | 0.928 |
| RRIRCRPPRLPRPRPRPDPPPRP | 0.52 |
| RRIRQRPPRLPRPRPRPHHGPRP | -0.042 |
| RRIRQRPPRLPRPRPRPEQTPRP | 0.0148 |
| RRIRTRPPRLPRPRPRPDNLPRP | -0.479 |
| RRIRARPPRLPRPRPRPEQNPRP | 0.928 |
| RRIRCRPPRLPRPRPRPAKAPRP | 0.162 |
| RRIRVRPPRLPRPRPRPEQYPRP | -0.394 |
| RRIRMRPPRLPRPRPRPLNQPRP | -0.0442 |
| RRIRRRPPRLPRPRPRPHKYPRP | -0.192 |
| RRIRVRPPRLPRPRPRPCHDPRP | -0.122 |
| RRIRCRPPRLPRPRPRPCAPPRP | -0.00137 |
| RRIRKRPPRLPRPRPRPKQCPRP | 0.0637 |
| RRIRERPPRLPRPRPRPHGLPRP | -0.161 |
| RRIRARPPRLPRPRPRPQTAPRP | 0.188 |
| RRIRYRPPRLPRPRPRPMADPRP | -0.0453 |
| RRIRMRPPRLPRPRPRPLPFPRP | -0.117 |
| RRIRPRPPRLPRPRPRPLYVPRP | -0.433 |
| RRIRERPPRLPRPRPRPHKNPRP | -0.206 |
| RRIRKRPPRLPRPRPRPHHSPRP | -0.298 |
| RRIRKRPPRLPRPRPRPVDEPRP | 0.358 |
| RRIRCRPPRLPRPRPRPNTWPRP | -0.539 |
| RRIRDRPPRLPRPRPRPSLHPRP | 0.0986 |
| RRIRRRPPRLPRPRPRPKFIPRP | -0.207 |
| RRIRHRPPRLPRPRPRPMANPRP | -0.0536 |

| Sequence | shrunken log2 fold change |
| --- | --- |
| RRIRPRPPRLPRPRPRPRYQPRP | 0.0923 |
| RRIRMRPPRLPRPRPRPCFHPRP | -0.318 |
| RRIRRRPPRLPRPRPRPAQWPRP | 0.912 |
| RRIRWRPPRLPRPRPRPYSSPRP | -1.07 |
| RRIRQRPPRLPRPRPRPPQQPRP | 0.497 |
| RRIRWRPPRLPRPRPRPQLTPRP | 0.325 |
| RRIRTRPPRLPRPRPRPAAEPRP | 0.351 |
| RRIRTRPPRLPRPRPRPDDGPRP | 0.02 |
| RRIRGRPPRLPRPRPRPSNVPRP | 0.175 |
| RRIRARPPRLPRPRPRPDFWPRP | 0.289 |
| RRIRCRPPRLPRPRPRPLDYPRP | -0.75 |
| RRIRTRPPRLPRPRPRPSVVPRP | -0.384 |
| RRIRNRPPRLPRPRPRPQPKPRP | 0.0668 |
| RRIRNRPPRLPRPRPRPNDHPRP | -0.153 |
| RRIRSRPPRLPRPRPRPAMRPRP | 0.588 |
| RRIRRRPPRLPRPRPRPGYGPRP | 0.238 |
| RRIRQRPPRLPRPRPRPSHFPRP | 0.0685 |
| RRIRVRPPRLPRPRPRPAGEPRP | 0.339 |
| RRIRTRPPRLPRPRPRPWEGPRP | 0.0154 |
| RRIRLRPPRLPRPRPRPIQSPRP | -0.0832 |
| RRIRLRPPRLPRPRPRPRYDPRP | 0.0436 |
| RRIRCRPPRLPRPRPRPQQKPRP | 0.13 |
| RRIRDRPPRLPRPRPRPLIRPRP | -0.0502 |
| RRIRTRPPRLPRPRPRPNCNPRP | -0.353 |
| RRIRLRPPRLPRPRPRPSFTPRP | -0.672 |

| Sequence | shrunken log2 fold change |
| --- | --- |
| RRIRRRPPRLPRPRPRPCDAPRP | 0.221 |
| RRIRFRPPRLPRPRPRPQTPPRP | 0.626 |
| RRIRNRPPRLPRPRPRPQWYPRP | -0.209 |
| RRIRARPPRLPRPRPRPCHKPRP | -0.259 |
| RRIRQRPPRLPRPRPRPYHGPRP | -0.126 |
| RRIRIRPPRLPRPRPRPCYKPRP | -0.049 |
| RRIRVRPPRLPRPRPRPLNCPRP | -0.257 |
| RRIRERPPRLPRPRPRPACWPRP | 0.715 |
| RRIRPRPPRLPRPRPRPDLAPRP | 0.316 |
| RRIRIRPPRLPRPRPRPGHGPRP | -0.062 |
| RRIRFRPPRLPRPRPRPGCYPRP | -0.238 |
| RRIRGRPPRLPRPRPRPGLYPRP | 0.341 |
| RRIRDRPPRLPRPRPRPCATPRP | 0.00509 |
| RRIRKRPPRLPRPRPRPMWSPRP | 0.123 |
| RRIRYRPPRLPRPRPRPTECPRP | -0.0134 |
| RRIRARPPRLPRPRPRPMQSPRP | 0.43 |
| RRIRVRPPRLPRPRPRPQECPRP | -0.00813 |
| RRIRYRPPRLPRPRPRPNSMPRP | -1.77 |
| RRIRGRPPRLPRPRPRPKECPRP | 0.0235 |
| RRIRARPPRLPRPRPRPEVRPRP | 0.623 |
| RRIRSRPPRLPRPRPRPCRMPRP | -0.102 |
| RRIRYRPPRLPRPRPRPKMKPRP | -0.404 |
| RRIRSRPPRLPRPRPRPANCPRP | -0.411 |
| RRIRKRPPRLPRPRPRPSWWPRP | 0.138 |
| RRIRARPPRLPRPRPRPWNDPRP | -0.158 |
